Experimental findings from article PMC11599015 (Viruses, 2024) are described below.

This test addresses recombinant circular RABV N10-RNA complex purified from insect cells (phosphorylated) (rabies virus (RABV), UniProt Q8JXF6 1-450). The test is described as follows: SPR. The settings on record: both partners purified.

As usually defined, the Kd is the equilibrium constant for the complex coming apart. One may read the stoichiometry N as the number of molecules, sites or subunits per partner or assembly.

Sequence of recombinant circular RABV N10-RNA complex purified from insect cells (phosphorylated) (Q8JXF6 whole entry, one chain of several): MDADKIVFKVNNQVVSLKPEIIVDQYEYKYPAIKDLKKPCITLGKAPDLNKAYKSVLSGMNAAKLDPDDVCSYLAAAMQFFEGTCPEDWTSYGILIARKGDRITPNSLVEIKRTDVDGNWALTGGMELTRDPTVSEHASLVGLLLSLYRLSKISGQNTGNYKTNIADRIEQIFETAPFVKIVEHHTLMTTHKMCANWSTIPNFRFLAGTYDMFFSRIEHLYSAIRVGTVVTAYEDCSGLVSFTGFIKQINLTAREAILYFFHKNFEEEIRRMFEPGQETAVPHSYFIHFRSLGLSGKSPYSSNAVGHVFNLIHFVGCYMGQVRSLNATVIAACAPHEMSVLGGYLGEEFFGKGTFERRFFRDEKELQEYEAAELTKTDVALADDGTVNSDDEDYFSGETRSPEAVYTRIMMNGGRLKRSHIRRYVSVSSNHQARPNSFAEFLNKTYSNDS

B1: C-terminal domain of RABV phosphoprotein P (PCTD) (domain or fragment)
chain: WSATNEEDDLSVEAEIAHQIAESFSKKYKFPSRSSGIFLYNFEQLKMNLDDIVKEAKNVPGVTRLAHDGSKIPLRCVLGWVALANSKKFQLLVEADKLSKIMQDDLNRYTSC
In the case of B1, the Kd was determined as 160 ± 20 nM and the “stoichiometry N” value turned out to be 2 ± 0.2.
